Key:
[1] = molecular target: T1, anti-CD28 scFv (VH-linker 1-VL) (biotinylated (site not stated)); test: phage ELISA; biotinylated scFv on neutravidin plate; anti-M13-HRP;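 note: crude clonal phage supernatant added to wells pre-incubated with soluble CD28 protein or only blocking buffer, then washed, bound phage read out with an HRP-linked anti-M13 antibody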
T1 construct: Captured as biotinylated scFv on neutravidin coated plates in the phage ELISA

[2] = molecular target: T1, anti-CD28 scFv (VH-linker 1-VL); test: phage ELISA; scFv wells pre-incubated with soluble CD28 (competitor);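 note: crude clonal phage supernatants added to wells pretreated with soluble CD28 in blocking buffer, bound phage read via HRP-linked anti-M13 antibody, reference wells got blocking buffer only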
Protocol: Clonal phage were harvested as crude supernatants and screened via standard enzyme linked immunosorbent assays (ELISAs). […] Prior to the addition of clonal phage, wells were incubated with blocking buffer and CD28 soluble protein or blocking buffer alone. Without washing or aspirating, clonal phage supernatants were then added to the wells and incubated for a short time. Wells were then washed followed by detection of bound phage using a horse radish peroxidase conjugated anti-M13 antibody.

T1 sequence (scFv, as listed by the source): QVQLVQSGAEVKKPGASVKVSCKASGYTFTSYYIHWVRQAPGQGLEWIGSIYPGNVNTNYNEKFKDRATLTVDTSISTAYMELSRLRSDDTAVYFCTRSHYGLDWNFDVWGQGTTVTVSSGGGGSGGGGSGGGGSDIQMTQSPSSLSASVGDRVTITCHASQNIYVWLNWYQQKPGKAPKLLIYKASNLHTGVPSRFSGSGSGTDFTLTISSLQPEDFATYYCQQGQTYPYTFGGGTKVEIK

| Binder | CD28 scFv signal [1] | CD28 scFv signal in presence of CD28 [2] |
| --- | --- | --- |
| MDWCPRSHWSECFS (on phage (pIII fusion)) [Phage-277 clonal phage peptide] | 0.253 | 0.087 |
| MDWCPRYLWAECFN (on phage (pIII fusion)) [Phage-279 clonal phage peptide] | 2.74 | 1.14 |
| MDWCPIYLWAECFN (on phage (pIII fusion)) [Phage-299 clonal phage peptide] | 2.45 | 0.307 |
| MDWCPRSLWDYCFA (on phage (pIII fusion)) [Phage-294 clonal phage peptide] | 2.49 | 0.235 |
| MDWCPRYLWDYCFA (on phage (pIII fusion)) [Phage-280 clonal phage peptide] | 2.71 | 0.382 |
| MDWCPRSLWNYCFN (on phage (pIII fusion)) [Phage-313 clonal phage peptide] | 2.35 | 0.209 |
| MDWCPRSLWNYCFA (on phage (pIII fusion)) [Phage-316 clonal phage peptide] | 2.32 | 0.198 |
| MDWCPRSLWFLCFN (on phage (pIII fusion)) [Phage-281 clonal phage peptide] | 2.71 | 1.77 |
| MDWCPRDLWFACFA (on phage (pIII fusion)) [Phage-282 clonal phage peptide] | 2.66 | 0.794 |
| MDWCPRDLWAMCFA (on phage (pIII fusion)) [Phage-285 clonal phage peptide] | 2.63 | 0.889 |
| MERCPRYLWHMCYS (on phage (pIII fusion)) [Phage-286 clonal phage peptide] | 2.59 | 0.84 |
| MDWCPIALWDFCFA (on phage (pIII fusion)) [Phage-288 clonal phage peptide] | 2.52 | 0.492 |
| MDWCPRDLWSVCFS (on phage (pIII fusion)) [Phage-290 clonal phage peptide] | 2.5 | 0.116 |
| MDWCPRALWDHCFF (on phage (pIII fusion)) [Phage-292 clonal phage peptide] | 2.49 | 0.394 |
| MDWCPKFLWDECFA (on phage (pIII fusion)) [Phage-304 clonal phage peptide] | 2.41 | 0.376 |
| MDWCPRYLWPVCFH (on phage (pIII fusion)) [Phage-307 clonal phage peptide] | 2.39 | 0.602 |
| MDWCPKSLWAECFN (on phage (pIII fusion)) [Phage-308 clonal phage peptide] | 2.38 | 0.162 |
| MDWCPRDLWDECFN (on phage (pIII fusion)) [Phage-310 clonal phage peptide] | 2.37 | 0.248 |
| MDWCPRDLWYQCFN (on phage (pIII fusion)) [Phage-311 clonal phage peptide] | 2.35 | 0.609 |
| MDWCPTYLWHVCFS (on phage (pIII fusion)) [Phage-315 clonal phage peptide] | 2.32 | 0.16 |
| MDWCPRHLWHECFT (on phage (pIII fusion)) [Phage-317 clonal phage peptide] | 2.3 | 0.32 |
| MSWCPRDLWHLCFF (on phage (pIII fusion)) [Phage-319 clonal phage peptide] | 2.27 | 0.319 |
| MDWCPTYLWNECFN (on phage (pIII fusion)) [Phage-320 clonal phage peptide] | 2.24 | 0.606 |

From patent US20230357447A1 (JANUX THERAPEUTICS, published 2023)
